Data published in the DeepSol protein solubility set.

Assay: soluble on expression in E. coli; label from the status in PepcDB or PDB records

For “MSLFLIMSGAYVGQELESEFGRIPPSFLPLGNRRLFQHQVALAPQGVKVYLSLPESYVVSEIDLQWLEQNQVTIIATPDGLSLGASLVAALNISGHSLNAPLHILYGDTLFNQLPVGDDIVSVSTAKDSYNWAVLTNDDVDWLQDANTPMSHESQRIIDGYFKFSHPRELVRCITQSEWKFIAGLNRYHKSVGLSAVNSIGWLDFGHVNTYYHSKAEFTTQRAFNELTITAKWIEKSSIKNQKIAAEAYWFDNLPMAMRGFIPQYLGSQNSEGKISYRLEYLYLTALNELFVFSRLPSQIWQKILASAVEFLSLCLEQAVEPNAPINTLDILFADKTALRLNEFCAARHITLEDQWQFAGQDISLAQILRDSQKHLPDGKPLLGVLHGDFCFSNILYDFRANKIKTIDPRGMTPDGQKTLYGDIRYDLAKLSHSILGLYDWIIAGYYHVEIADNAIELKIAEQSHHKETQQGFIELIEQTFGLTAKNLYAMQIQLFLSMLPLHADDRRRQDALFANAFRLHQILLRLDQEGHHHHHH”, which “soluble on expression in E. coli” value is on record?
Its value is “soluble”.

Which “soluble on expression in E. coli” value does the source give for “SQWIMHKTSTPEFCASCHSMSYPQQEWEGSSHFANAKGVRAQCSDCHIPKEGWHYVKAKFIALKDLWYEAQGKIENKEKYEAHRAEMAQRVWKDMKANDSETCRSCHSFDAMELSKQTKLAKQTHTEAQTNGQTCIDCHKGIVHFLPEVHGDQNTQKSSAVQGGTLSDGSAIFATEMVKATNDKGNEVRLMPYAELMQWKVDGDQIQGTLHGWQQVGAEAVVYQELGKRITLALMDEDARNHVQVLKIVHDAVTDSDWKEISVAVNVAKEKMTSDLTTLNQYGNQLNQTQCSGCHAAIGADHYTA” here?
The value was “not soluble”.

Which “soluble on expression in E. coli” value does the source give for “EYLDGFEAFTDQYKIKFQEFLDRFGIYYQPSTNKNAELFKVADSDIPSAEVKAYYVKEEWYFTPTNSDVDIKIQAICPIMTGQDEFGEVRNQPLFWIPYENIRPYIARERVMLSSLNNTRNSTIDDFFRLNLYKGDIVKTENLHNRALAEYCPTPDSMKMESKRIDKELQGFRDGLFVTQDTTWMKQAETKKSKGKKLEKARGKNITSRTRGQGEGAAETEAVEPKKQKASKNKAATRSVRRRK” here?
Its value is “not soluble”.

For “MQNRKFLTHHEINLLLQSVKQKSCSSRDVCMILLAYFHGLRVSELLSLQLSDLELTTEKIYIQRIKNGFSTVHPLQKEEVIAITNWLNERNSLNVKHFNDNPWLFVSRTGKPLSRQRFYNI”, which “soluble on expression in E. coli” value is on record?
Its value is “not soluble”.

Which “soluble on expression in E. coli” value does the source give for “MQTQEVVIKPTLKVLLKSDSQNLEEVVVTAMGIKRSEKSLGYAVSSVKGDEITKARESNVLNSLSGKIAGLQIAQSSGTVGGSSSIQIRGASSIGTVSSPLFIIDGLPIDNGSYNPDRTNGIVDVGNRAGDINSDDIESINVLKGAAATALYGARAKDGAIVITTKKGKKNSPVFVTVNSSTRFENVLKLPDFQNEYAQGSYGVYNVKMLNGWGPKISSVQDQQFTDYKGDKVTLKANPDNVKDFYETGMSYINNVSVAGGGEKADFRLSFTSTNQTGVVPGSDYNKYAFSVNAGMNFTSNFTGRISAQYIRSDSEGRPAQGANDSNLLIPLINGLPRTIDIHDIKQNWIDENGKQVTLDPEGKSNNPYWIINKNKFTNNLDRMIGNITLTYKPIEGLTITNNAGTDFYTEGRRKLYAKGTVGALNGKFQTWNLYKRIINNDLMVSYEKTFANDYHFKAMVGHNLYQEEWKNENVQAQNLVVDGLYTYTNAKSTTPVNYYEKKRLVGLYGDISLGYKDMLFINVTGRNDWSSTLPINNRSYFYPSISGSFIFTELMENKDILNYGKIRLSYANVGSDEDPYNLAFKYTPASTYFLQYLGNVNTFPHMGLVGFTGPRVLPNENLKPQNQSSFEVGADLRFFGGKIRLDMTYYSNITKNQIVSIDVPLSTGYFANNINAGKIANKGVEVTLGLTPVETRNFKWDLDATFASNKQTVEELAEGLDEYTLTSGLSGLQIKAAKGDSFGLYGTAWKRDDQGNYVINSKTGLRETVNNVRLGDVYPDFTMGINNTLTYKGLTFSFLIDIRHGGSLYSETVANLRSSGLAAETVAHREDASFIEPGVILQDDGTYRPNDVPVKSMQDYWQHVANSSNNEGNIYNASFVKLREVQLSYSFPRKWFKSFFVKSLDLGFEARNLWIIKDHVPHIDPEANFFGPSQIGGGVEFNSIPSTRSFGFNLRLTL” here?
The value was “not soluble”.

With “DDGSNEDTKQALSALSEQGLIKLISLSENQGKGGAVMAGLHQAHQLGFTHTIQIDADGQHDLEALPKLLSASETKPDNLISGQPIYDESVPKARLYGRYATHIWVWIETLSLSIKDSMCGFRAYPVAKTVAVLNKYNIGKRMDFDIEILVRMYWEGVDIDFVPTRVIYPEGGISHFDALWDNVKISWMHTRLFFGMLPRIPSLLARKRRHTDDSNAHWSKRKEQGTILGIKTLLAVYRLFGRKAFDLILKLVMRYYHFTGKSAREASEIYLQNLQRYAAQQNIALPKQLDSYHHLLSFGRTMLDKLAAWQGDFNVDNLTIHGQHHFEEMAQKKQGVLILGSHLGNIELCRALGRRHSHVKINALVFTQHAEQFNAVMKAVNPNSELNLIQVSSMGPDTAILLQQKIEQGEWVVIVGDRTSTSKENRVVWADFLGKPAPFPQGP” as the sequence, how does the “soluble on expression in E. coli” value read?
The value was “not soluble”.

Which “soluble on expression in E. coli” value does the source give for “FRFGLPIFHTIRWLVNLSKGKLEEPRNREGRPVSKNKKGKIKQPYRFFGEIFESMDQLTETLRRDKRNREKIQATREEWIAGLSHDLKTPLSSIYGYSMMLESKQYDWSPEEGEEMGQVVREKSEYMSKLIEDLNLTYRLKNDALPIERKLTSLIPFFKNVIEDFKKNPFSEGYDISFVSKEEHIEFALDEAWFRRILENLLGNAVKHNGKGTEIQVILEQTKNHISLKVKDNGKGMDEETITHLFNRYYRGTNTKDSTAGTGLGLAIAKELVHLHNGTIHVNSRTNIGTVITILFK” here?
The value was “not soluble”.

With “MGSDKIHHHHHHMGHSLNAKYGLKRVINASGRMSILGVSAPTDTVMDAMKHGGQNYVEIADLVDKAGDHIARILDSEAAVVVNSASSGIALSIAAIVTEGNRRKSERLHQEVIAKNEVIMLKGHNVQYGAPVETMIYLGGGKLVEVGYANEGKAEHIEDAIGENTAAILYVKSHHAVQKNMISVEEAWEVAQRNNIPLIVDAAAEEDIQKYVKYADLAIYSGSKAIEGPTSGIVGGKRKYIEWLKVQLHCIGRSMKVGKETTFGLLQALDEYGVKEDKSEQEKELLQVLMPLKELNGVNVTIVQDEAGRAIFRARIHIDENELNKSAKDVVTALREGEIAIYTRDYGVRQGFFDIDPRPLLGDDIHVIEEKLREIVGGN” as the sequence, how does the “soluble on expression in E. coli” value read?
The value was “not soluble”.

For “MSLSDVSRILKEARSQSRLTTLDYAEQIFDDFMELHGDRHFADDGAIVGGIGLLDGQAVTVIGVQKGKNLQDNLNRNFGQPNPEGYRKALRLMKQAEKFKRPVVTFINTAGAYPGIGAEERGQGEAIARNLLEMSDLKVPIIAIIIGEGGSGGALALAVADKVWMLEHTMYAVLSPEGFASILWKDGSRSIEAAELMKITAGELLKMEVVDKVIPEHGYFSSEIIQMLKTNLIEELKNLDQYPLNDLLEKRYQRFRKYEGHHHHHH”, which “soluble on expression in E. coli” value is on record?
Its value is “soluble”.

With “MALDKLLENEAQSEIERIRAEARGRAEKIVADARERAQTLLDSRQRLLENQRQAGLVRARSAADLELNAARLTASESGVTQVYQMVEDYLGNVTSAPEYGNILSRLIQEGLQAVPDAEAIEVNPAEMNVARHLVSGVEVRENPSIKGGVRVVARGGKSGVTNTLSGRLERVKADMAPQISRLLAE” as the sequence, how does the “soluble on expression in E. coli” value read?
Its value is “soluble”.

For “MGSDKIHHHHHHMKTPLVITALSLCLPFMAHAGSSFVEGDDILAGEVELGATLTTGNTDTSSFKGRLALKHELGNWENQYLLEGLYKEDTETVTAKRYIVGAQGDYLIDHDSYIFSNMNYEVDPFTGYEYSFTAASGYGHKFINDDRTKLKAEIGPGFIYQKLDSTLAAIEGYDTDKSVVAHAVINFETKLGDSSKFGQKLVMDMGEKIDARSETSLTANIVGALAMKFAVIVRYNSNPLDSKTSTDTETNMTLLYAF”, which “soluble on expression in E. coli” value is on record?
The value was “not soluble”.

For “MVQKLSRPSPDFLKGLKSILQGDHPSLKQLEQDINIFYMNQRQSQSMLEERKLYVALVRKYLKSEGVTKQLASQGIKLRGLSVFGSFPTHCASKDSDLDLCVCATATGNKKQLPVIILQAIFRDMMYSKEGQNIFGENVVSGISFVQTAKVPIIRFKINDVPVDLSATFDDNPRTSLAAKYINAYCQLDDRFKILVMFLKKWMKSEGRAEDHLRIYPNSYSIILLLIHVLQWYDILPNLHQTHSDLFHRGNFKLSDLAELRHEFKFPLDENTISMHRKRPSNDLTVVQLLYLFACQYSNHVVLLNYRFNMRNGEIEALSQKDQDYQITILDAYDVRNPGRSARNALDLVKTLEALKSLLVQPHEGMFKTVMEITRNRTYERVVPPPQVLYQDYDMQFGADPYNMPLVGSVEYQQWLEQVAMHHQIQMMQGQMMQQQIVFTAPEMYYYSQQQQQPHPIFGIQQSSQFF”, which “soluble on expression in E. coli” value is on record?
The value was “not soluble”.

For “MGSDKIHHHHHHMTQKESIRLFEERKVRAIWDDEQEEWYFSIVDVISILTDSPNPRKYWSVLKTRLKREGSELTTNCSQLKMQAADGKKYLTDVANTEQLFRLIQSVPSPKAEPFKLWIAQVAKERLDQMQDPELSIEQAMADYKRLGYSDNWINQRLKSIEIRKDLTDEWKKRGLEEGLHFATLTDIIYKSWSDMTSKEYKRFKGLRKENLRDNMTNKELVLNMLAELSTKEISEASEPDTFSEHINVAQQGGEVARNARLELEAKTGKSVISPLNAQKIISLKKGENERDV”, which “soluble on expression in E. coli” value is on record?
The value was “not soluble”.

For “MLQNQYVREMRKYGVRGLRYDAAKHSKHEQIERSITPPLKNYNERLHNTNLFNPKYHEKAVMNYMEYLVTCQLDEEQMSSLLYERDDLSAIDFSLLMKTIKAFSFGGDLQTLASKPSSTISSIPSKRRILININHDFPNNGNLFNDFLFNHQQDEQLAMAYMAALPFSRPLVYWDGQVLKSTTEIKNYDGSTRVGGEAWLNKGCSTYQQLYNEFHALYIDKAGIWSAFEGVFATKNVLAFSRGDSVNINHSPHDGLVIINKGNEEVEGAWPNKLQPGKYKNMGSNSVNIIINNTRKIIPPGKAFMLRGGTLNINIPGRSALLLGKTGEPLNYLYL”, which “soluble on expression in E. coli” value is on record?
Its value is “not soluble”.

For “MGSDKIHHHHHHMTYQAREAGLKEVEQLVHEQAVYQYLQENNEGGQMDKDQMLFLHEAISGSDLTDAAAYRVVSATLYMILAHDTHEKIDEPGDVVKLTRKEQELTVLAGDFYSALYYRTLAELEMIPLLRALQSGVQETNTAKTNIYQLHVATDEEYLSQLTLTNAAIFAKFAKYFMKDETFIALGCQFFLLKRLQTELATYKEIGASRLKRAFDHGYFAKEAVSNFESWLVAIIRDVKSEVERLKTEAEPLSNLLEKRIIEVIND”, which “soluble on expression in E. coli” value is on record?
The value was “not soluble”.

Which “soluble on expression in E. coli” value does the source give for “MTLPQTMKAAVVHAYGAPLRIEEVKVPLPGPGQVLVKIEASGVCHTDLHAAEGDWPVKPPLPFIPGHEGVGYVAAVGSGVTRVKEGDRVGIPWLYTACGCCEHCLTGWETLCESQQNTGYSVNGGYAEYVLADPNYVGILPKNVEFAEIAPILCAGVTVYKGLKQTNARPGQWVAISGIGGLGHVAVQYARAMGLHVAAIDIDDAKLELARKLGASLTVNARQEDPVEAIQRDIGGAHGVLVTAVSNSAFGQAIGMARRGGTIALVGLPPGDFPTPIFDVVLKGLHIAGSIVGTRADLQEALDFAGEGLVKATIHPGKLDDINQILDQMRAGQIEGRIVLEM” here?
Its value is “soluble”.

Which “soluble on expression in E. coli” value does the source give for “DLVIIVDDERRIVDVNAAATALFDGDQNTLLGRSLPQASPTLAETVPGPGERTQTETALERDGSVRYYDVRVIPLYRAYGVVSGHLISLRD” here?
Its value is “not soluble”.

For “GTREQALGPALSFSTEGEFLKVRILDPVADSRRYNEEFKAQGLDIELVLIPASPSQVGQADGQLYSGSNTRQRIRFESVPAGCVEAATYPCVPEFTIPKDYRGTARFGINRAAAPGEQYAATGALNGRDEPLEGIQWLNRPVGEISAILRQRGFSITYRWPTGRQNPNATPPPTWYVIEPSFARQNNLVELEVSPRPMK”, which “soluble on expression in E. coli” value is on record?
The value was “not soluble”.
